The values below come from IntAct's records for PubMed 23403928.

B1: Mitochondrial import inner membrane translocase subunit TIM23 (Saccharomyces cerevisiae), P32897 (parent)
chain: MSWLFGDKTPTDDANAAVGGQDTTKPKELSLKQSLGFEPNINNIISGPGGMHVDTARLHPLAGLDKGVEYLDLEEEQLSSLEGSQGLIPSRGWTDDLCYGTGAVYLLGLGIGGFSGMMQGLQNIPPNSPGKLQLNTVLNHITKRGPFLGNNAGILALSYNIINSTIDALRGKHDTAGSIGAGALTGALFKSSKGLKPMGYSSAMVAAACAVWCSVKKRLLEK
partner: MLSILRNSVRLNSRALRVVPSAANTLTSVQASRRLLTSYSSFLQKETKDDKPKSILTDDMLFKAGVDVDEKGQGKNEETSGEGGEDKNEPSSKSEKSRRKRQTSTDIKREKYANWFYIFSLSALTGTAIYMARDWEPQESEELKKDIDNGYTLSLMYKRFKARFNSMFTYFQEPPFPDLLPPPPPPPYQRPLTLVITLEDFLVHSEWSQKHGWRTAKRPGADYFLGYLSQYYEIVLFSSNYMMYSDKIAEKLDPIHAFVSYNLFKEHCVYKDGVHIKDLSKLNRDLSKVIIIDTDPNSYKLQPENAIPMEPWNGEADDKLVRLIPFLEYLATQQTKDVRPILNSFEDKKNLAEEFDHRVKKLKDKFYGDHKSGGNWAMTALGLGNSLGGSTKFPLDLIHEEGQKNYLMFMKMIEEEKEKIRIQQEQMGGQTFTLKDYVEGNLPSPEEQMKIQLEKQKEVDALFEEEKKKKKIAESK

Variants of B1 are the subject of the experiment. Conditions: with tim50_yeast TIM50, Q02776.
Turning to MSWLFGDKTPTDDANAAVGGQDTTKPKELSLKQSLGFEPNINNIISGPGGMHVDTARLHPLAGLDKGVEAADLEEEQLSSLEGSQGLIPSRGWTDDLCYGTGAVYLLGLGIGGFSGMMQGLQNIPPNSPGKLQLNTVLNHITKRGPFLGNNAGILALSYNIINSTIDALRGKHDTAGSIGAGALTGALFKSSKGLKPMGYSSAMVAAACAVWCSVKKRLLEK [Y70A;L71A], the “effect of a mutation on the interaction” value was “disrupting interaction”.
